# Results reported in IntAct's records for PubMed 30623132.
# B1: Myosin-7 (Homo sapiens), P12883 (parent)
# chain: MGDSEMAVFGAAAPYLRKSEKERLEAQTRPFDLKKDVFVPDDKQEFVKAKIVSREGGKVTAETEYGKTVTVKEDQVMQQNPPKFDKIEDMAMLTFLHEPAVLYNLKDRYGSWMIYTYSGLFCVTVNPYKWLPVYTPEVVAAYRGKKRSEAPPHIFSISDNAYQYMLTDRENQSILITGESGAGKTVNTKRVIQYFAVIAAIGDRSKKDQSPGKGTLEDQIIQANPALEAFGNAKTVRNDNSSRFGKFIRIHFGATGKLASADIETYLLEKSRVIFQLKAERDYHIFYQILSNKKPELLDMLLITNNPYDYAFISQGETTVASIDDAEELMATDNAFDVLGFTSEEKNSMYKLTGAIMHFGNMKFKLKQREEQAEPDGTEEADKSAYLMGLNSADLLKGLCHPRVKVGNEYVTKGQNVQQVIYATGALAKAVYERMFNWMVTRINATLETKQPRQYFIGVLDIAGFEIFDFNSFEQLCINFTNEKLQQFFNHHMFVLEQEEYKKEGIEWTFIDFGMDLQACIDLIEKPMGIMSILEEECMFPKATDMTFKAKLFDNHLGKSANFQKPRNIKGKPEAHFSLIHYAGIVDYNIIGWLQKNKDPLNETVVGLYQKSSLKLLSTLFANYAGADAPIEKGKGKAKKGSSFQTVSALHRENLNKLMTNLRSTHPHFVRCIIPNETKSPGVMDNPLVMHQLRCNGVLEGIRICRKGFPNRILYGDFRQRYRILNPAAIPEGQFIDSRKGAEKLLSSLDIDHNQYKFGHTKVFFKAGLLGLLEEMRDERLSRIITRIQAQSRGVLARMEYKKLLERRDSLLVIQWNIRAFMGVKNWPWMKLYFKIKPLLKSAEREKEMASMKEEFTRLKEALEKSEARRKELEEKMVSLLQEKNDLQLQVQAEQDNLADAEERCDQLIKNKIQLEAKVKEMNERLEDEEEMNAELTAKKRKLEDECSELKRDIDDLELTLAKVEKEKHATENKVKNLTEEMAGLDEIIAKLTKEKKALQEAHQQALDDLQAEEDKVNTLTKAKVKLEQQVDDLEGSLEQEKKVRMDLERAKRKLEGDLKLTQESIMDLENDKQQLDERLKKKDFELNALNARIEDEQALGSQLQKKLKELQARIEELEEELEAERTARAKVEKLRSDLSRELEEISERLEEAGGATSVQIEMNKKREAEFQKMRRDLEEATLQHEATAAALRKKHADSVAELGEQIDNLQRVKQKLEKEKSEFKLELDDVTSNMEQIIKAKANLEKMCRTLEDQMNEHRSKAEETQRSVNDLTSQRAKLQTENGELSRQLDEKEALISQLTRGKLTYTQQLEDLKRQLEEEVKAKNALAHALQSARHDCDLLREQYEEETEAKAELQRVLSKANSEVAQWRTKYETDAIQRTEELEEAKKKLAQRLQEAEEAVEAVNAKCSSLEKTKHRLQNEIEDLMVDVERSNAAAAALDKKQRNFDKILAEWKQKYEESQSELESSQKEARSLSTELFKLKNAYEESLEHLETFKRENKNLQEEISDLTEQLGSSGKTIHELEKVRKQLEAEKMELQSALEEAEASLEHEEGKILRAQLEFNQIKAEIERKLAEKDEEMEQAKRNHLRVVDSLQTSLDAETRSRNEALRVKKKMEGDLNEMEIQLSHANRMAAEAQKQVKSLQSLLKDTQIQLDDAVRANDDLKENIAIVERRNNLLQAELEELRAVVEQTERSRKLAEQELIETSERVQLLHSQNTSLINQKKKMDADLSQLQTEVEEAVQECRNAEEKAKKAITDAAMMAEELKKEQDTSAHLERMKKNMEQTIKDLQHRLDEAEQIALKGGKKQLQKLEARVRELENELEAEQKRNAESVKGMRKSERRIKELTYQTEEDRKNLLRLQDLVDKLQLKVKAYKRQAEEAEEQANTNLSKFRKVQHELDEAEERADIAESQVNKLRAKSRDIGTKGLNEE
# Variants of: B1
# Details: with mypc3_human MYBPC3, Q14896
# Chain of mypc3_human MYBPC3, Q14896 (Q14896 whole entry): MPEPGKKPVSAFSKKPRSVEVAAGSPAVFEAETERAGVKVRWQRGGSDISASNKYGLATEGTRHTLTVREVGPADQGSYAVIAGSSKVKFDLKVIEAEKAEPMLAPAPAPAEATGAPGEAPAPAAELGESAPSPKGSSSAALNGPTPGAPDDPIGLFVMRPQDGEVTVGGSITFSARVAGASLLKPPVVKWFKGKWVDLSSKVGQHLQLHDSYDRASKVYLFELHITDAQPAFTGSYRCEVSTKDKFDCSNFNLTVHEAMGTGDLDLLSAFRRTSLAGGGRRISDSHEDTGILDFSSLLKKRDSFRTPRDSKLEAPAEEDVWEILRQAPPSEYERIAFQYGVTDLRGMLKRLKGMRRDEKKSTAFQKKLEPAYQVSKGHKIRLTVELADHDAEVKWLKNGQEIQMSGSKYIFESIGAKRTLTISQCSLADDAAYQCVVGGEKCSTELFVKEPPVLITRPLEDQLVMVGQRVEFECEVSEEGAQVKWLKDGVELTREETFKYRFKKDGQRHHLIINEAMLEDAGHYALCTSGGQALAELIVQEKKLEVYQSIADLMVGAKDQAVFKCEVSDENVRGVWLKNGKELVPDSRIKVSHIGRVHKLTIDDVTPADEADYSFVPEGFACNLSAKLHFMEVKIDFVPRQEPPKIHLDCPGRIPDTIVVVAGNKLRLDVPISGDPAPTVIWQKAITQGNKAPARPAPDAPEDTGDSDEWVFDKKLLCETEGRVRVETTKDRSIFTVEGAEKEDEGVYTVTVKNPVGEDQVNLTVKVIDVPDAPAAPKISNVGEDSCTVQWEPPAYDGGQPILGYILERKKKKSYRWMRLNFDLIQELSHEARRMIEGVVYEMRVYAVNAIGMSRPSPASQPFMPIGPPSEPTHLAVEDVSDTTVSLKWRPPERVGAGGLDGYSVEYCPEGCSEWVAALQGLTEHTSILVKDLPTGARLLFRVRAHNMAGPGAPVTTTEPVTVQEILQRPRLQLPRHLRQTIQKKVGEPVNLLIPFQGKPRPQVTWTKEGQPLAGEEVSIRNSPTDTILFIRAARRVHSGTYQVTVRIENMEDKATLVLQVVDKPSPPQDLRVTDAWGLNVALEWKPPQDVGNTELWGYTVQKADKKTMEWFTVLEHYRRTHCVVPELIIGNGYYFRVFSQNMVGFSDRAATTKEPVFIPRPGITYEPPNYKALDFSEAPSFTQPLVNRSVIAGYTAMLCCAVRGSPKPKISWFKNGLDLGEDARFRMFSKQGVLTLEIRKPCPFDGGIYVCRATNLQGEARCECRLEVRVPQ
row,effect of a mutation on the interaction,Variant
1,disrupting interaction strength,E848G
